Experiments:
FGFR1 = FGFR1 (UniProt P11362); experiment: phosphorylation enrichment, bacterial display (enrichment ratio); higher = better substrate or ligand; peptides without Tyr show the background
c-Abl (mouse) = experiment: as above
FGFR3 = FGFR3 (UniProt P22607); experiment: as above
EPHB2 = EPHB2 (UniProt P29323); experiment: as above
Fer (mouse) = experiment: as above
c-Src = experiment: as above
AncSZ = experiment: as above
EPHB1 = EPHB1 (UniProt P54762); experiment: as above
Hck = Hck (UniProt P08631); experiment: as above
MERTK = MERTK (UniProt Q12866); experiment: as above
Fyn = Fyn (UniProt P06241); experiment: as above
Fes = Fes (UniProt P07332); experiment: as above
Jak2 = Jak2 (UniProt O60674); experiment: as above
SHP2-C SH2 = experiment: SH2 binding enrichment of the phosphorylated peptide, bacterial display (enrichment ratio); higher = better substrate or ligand; peptides without Tyr show the background
Grb2 SH2 = Grb2 SH2 (UniProt P62993); experiment: as above
c-Src SH2 = experiment: as above
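Wherever SH2 binding enrichment of the phosphorylated peptide, bacterial display is given: peptide library displayed on the E. coli surface as eCPX fusions, selected cells deep-sequenced, score is each peptide's frequency after selection divided by its frequency in the input.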
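Wherever phosphorylation enrichment, bacterial display is given: 11-residue human phosphosite peptides and single-mutation variants displayed on the E. coli surface, counted by deep sequencing, each peptide's frequency after selection divided by its frequency in the unselected input library; frequency after pTyr selection over input frequency; kinase dosed for 20-30% of maximal phosphorylation in three min.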

EPHB2, sequence (P29323 whole entry, looked up): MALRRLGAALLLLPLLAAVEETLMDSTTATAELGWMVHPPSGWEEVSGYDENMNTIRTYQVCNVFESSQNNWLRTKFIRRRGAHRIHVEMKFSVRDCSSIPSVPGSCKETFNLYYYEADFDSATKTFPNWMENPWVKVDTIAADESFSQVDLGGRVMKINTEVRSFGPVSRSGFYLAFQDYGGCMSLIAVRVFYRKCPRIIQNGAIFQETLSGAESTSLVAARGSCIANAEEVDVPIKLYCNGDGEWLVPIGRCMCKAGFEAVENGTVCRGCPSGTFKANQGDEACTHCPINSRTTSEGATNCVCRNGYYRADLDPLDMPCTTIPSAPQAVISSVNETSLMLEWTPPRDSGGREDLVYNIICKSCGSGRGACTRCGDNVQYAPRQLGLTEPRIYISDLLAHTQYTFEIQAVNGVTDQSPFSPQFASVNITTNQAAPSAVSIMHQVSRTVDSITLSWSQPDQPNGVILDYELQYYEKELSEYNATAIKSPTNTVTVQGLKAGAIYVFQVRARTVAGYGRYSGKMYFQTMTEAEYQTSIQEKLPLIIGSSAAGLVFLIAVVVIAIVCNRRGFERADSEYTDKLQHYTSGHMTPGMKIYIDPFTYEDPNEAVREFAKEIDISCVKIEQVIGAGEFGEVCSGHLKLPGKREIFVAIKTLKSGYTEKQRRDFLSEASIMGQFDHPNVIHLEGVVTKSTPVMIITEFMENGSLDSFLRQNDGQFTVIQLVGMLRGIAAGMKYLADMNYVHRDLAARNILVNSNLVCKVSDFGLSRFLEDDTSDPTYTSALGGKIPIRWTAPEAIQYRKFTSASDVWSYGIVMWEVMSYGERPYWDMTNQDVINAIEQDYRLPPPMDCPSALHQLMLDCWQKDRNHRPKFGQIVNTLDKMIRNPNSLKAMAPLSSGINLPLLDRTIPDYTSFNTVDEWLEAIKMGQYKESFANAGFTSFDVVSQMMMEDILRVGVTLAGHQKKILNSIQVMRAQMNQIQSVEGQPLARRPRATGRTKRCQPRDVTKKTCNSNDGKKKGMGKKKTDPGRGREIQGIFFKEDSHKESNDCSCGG
MERTK, sequence (Q12866 whole entry, looked up): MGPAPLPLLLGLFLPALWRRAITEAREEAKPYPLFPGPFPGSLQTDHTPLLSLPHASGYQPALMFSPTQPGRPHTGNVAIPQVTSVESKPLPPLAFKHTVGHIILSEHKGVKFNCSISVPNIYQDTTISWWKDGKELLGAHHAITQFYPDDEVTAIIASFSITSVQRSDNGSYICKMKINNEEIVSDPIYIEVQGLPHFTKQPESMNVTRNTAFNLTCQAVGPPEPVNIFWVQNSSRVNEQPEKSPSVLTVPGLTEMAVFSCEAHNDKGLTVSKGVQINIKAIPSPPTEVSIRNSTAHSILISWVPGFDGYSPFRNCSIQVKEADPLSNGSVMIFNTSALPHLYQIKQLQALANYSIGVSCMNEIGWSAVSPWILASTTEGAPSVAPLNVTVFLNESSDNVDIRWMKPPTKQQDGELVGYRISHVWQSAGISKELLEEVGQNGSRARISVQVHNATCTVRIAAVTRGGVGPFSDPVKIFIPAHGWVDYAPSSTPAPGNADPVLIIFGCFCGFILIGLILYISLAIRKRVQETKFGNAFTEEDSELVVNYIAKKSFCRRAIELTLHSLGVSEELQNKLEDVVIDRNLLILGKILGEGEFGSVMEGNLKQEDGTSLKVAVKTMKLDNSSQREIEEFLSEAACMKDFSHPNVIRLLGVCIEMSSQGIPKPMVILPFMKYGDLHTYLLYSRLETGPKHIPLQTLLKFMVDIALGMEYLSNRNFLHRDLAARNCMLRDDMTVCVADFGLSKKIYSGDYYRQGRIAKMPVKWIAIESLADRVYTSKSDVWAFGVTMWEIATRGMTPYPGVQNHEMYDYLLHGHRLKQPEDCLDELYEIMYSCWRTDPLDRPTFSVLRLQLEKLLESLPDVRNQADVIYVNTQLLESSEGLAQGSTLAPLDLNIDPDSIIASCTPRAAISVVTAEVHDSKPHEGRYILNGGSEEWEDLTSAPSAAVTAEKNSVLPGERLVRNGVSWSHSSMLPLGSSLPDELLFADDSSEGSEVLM
Fyn, sequence (P06241 whole entry, looked up): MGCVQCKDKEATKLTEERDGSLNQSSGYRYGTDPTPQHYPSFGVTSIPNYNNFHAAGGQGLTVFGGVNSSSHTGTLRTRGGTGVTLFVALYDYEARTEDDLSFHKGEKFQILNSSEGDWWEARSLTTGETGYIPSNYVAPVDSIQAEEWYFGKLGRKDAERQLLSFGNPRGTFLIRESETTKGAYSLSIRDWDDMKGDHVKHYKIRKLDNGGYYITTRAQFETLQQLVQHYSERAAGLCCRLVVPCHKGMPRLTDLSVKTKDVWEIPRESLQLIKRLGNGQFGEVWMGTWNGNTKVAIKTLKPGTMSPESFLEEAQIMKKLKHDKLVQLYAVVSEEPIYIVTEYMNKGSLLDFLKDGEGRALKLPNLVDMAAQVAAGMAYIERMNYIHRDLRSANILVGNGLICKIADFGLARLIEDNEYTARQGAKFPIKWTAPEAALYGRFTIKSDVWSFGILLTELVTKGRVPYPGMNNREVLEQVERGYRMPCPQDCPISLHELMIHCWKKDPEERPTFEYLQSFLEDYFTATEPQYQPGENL
FGFR1, sequence (P11362 whole entry, looked up): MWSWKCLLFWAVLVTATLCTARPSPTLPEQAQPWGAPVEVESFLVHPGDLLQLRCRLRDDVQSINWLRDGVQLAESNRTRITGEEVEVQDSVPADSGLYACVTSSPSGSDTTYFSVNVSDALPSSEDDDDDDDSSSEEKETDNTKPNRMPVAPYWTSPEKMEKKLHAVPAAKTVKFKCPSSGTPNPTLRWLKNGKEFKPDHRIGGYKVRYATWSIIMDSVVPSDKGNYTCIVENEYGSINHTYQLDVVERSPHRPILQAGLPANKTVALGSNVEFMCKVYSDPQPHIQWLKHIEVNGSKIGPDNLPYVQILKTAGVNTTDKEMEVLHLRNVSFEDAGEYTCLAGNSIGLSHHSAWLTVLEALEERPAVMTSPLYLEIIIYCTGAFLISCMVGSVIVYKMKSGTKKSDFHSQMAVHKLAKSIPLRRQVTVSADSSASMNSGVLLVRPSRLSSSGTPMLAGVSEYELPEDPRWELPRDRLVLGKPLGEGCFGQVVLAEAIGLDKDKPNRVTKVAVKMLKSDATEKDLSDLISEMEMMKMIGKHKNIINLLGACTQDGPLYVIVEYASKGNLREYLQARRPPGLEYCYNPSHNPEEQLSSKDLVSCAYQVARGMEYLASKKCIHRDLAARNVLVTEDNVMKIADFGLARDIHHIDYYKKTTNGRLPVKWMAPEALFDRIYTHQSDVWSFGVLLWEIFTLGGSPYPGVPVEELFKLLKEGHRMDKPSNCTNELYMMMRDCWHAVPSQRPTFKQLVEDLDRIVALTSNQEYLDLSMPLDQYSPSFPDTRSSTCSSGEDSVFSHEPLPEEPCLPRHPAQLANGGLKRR
Hck, sequence (P08631 whole entry, looked up): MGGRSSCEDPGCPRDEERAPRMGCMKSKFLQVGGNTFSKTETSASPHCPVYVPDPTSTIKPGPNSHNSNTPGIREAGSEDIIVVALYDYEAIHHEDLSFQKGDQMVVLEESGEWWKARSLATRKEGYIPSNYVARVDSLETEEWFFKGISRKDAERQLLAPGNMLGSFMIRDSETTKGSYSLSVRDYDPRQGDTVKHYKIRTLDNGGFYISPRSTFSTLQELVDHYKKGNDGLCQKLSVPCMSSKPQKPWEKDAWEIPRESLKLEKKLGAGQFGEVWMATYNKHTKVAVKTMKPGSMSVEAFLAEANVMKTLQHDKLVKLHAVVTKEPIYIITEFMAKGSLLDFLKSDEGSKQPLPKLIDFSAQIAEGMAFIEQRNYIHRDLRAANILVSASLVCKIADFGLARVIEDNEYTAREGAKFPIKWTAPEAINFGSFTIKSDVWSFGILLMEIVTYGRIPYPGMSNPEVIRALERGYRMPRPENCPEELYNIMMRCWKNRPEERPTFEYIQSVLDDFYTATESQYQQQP
FGFR3, sequence (P22607 whole entry, looked up): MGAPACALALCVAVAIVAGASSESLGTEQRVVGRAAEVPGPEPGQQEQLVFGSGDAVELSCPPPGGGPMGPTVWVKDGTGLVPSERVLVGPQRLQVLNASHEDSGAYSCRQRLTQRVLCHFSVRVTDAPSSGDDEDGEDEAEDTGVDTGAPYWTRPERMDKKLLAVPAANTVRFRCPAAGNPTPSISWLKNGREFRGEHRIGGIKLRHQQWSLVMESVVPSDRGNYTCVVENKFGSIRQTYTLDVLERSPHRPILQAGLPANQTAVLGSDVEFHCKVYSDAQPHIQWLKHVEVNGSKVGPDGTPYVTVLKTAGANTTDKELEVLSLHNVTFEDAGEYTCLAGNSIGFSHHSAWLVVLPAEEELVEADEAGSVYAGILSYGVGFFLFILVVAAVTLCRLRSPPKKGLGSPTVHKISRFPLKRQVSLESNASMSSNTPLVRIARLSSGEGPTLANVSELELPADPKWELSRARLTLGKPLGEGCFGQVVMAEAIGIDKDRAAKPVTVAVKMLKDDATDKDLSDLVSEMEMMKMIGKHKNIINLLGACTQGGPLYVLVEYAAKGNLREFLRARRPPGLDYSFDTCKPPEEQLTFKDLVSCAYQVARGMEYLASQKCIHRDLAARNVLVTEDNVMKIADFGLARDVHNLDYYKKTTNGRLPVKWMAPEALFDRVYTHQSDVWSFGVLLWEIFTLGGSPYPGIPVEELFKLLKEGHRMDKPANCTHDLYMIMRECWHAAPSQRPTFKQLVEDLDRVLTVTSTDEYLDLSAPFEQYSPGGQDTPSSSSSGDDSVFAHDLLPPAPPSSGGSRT
Grb2 SH2, sequence (P62993 whole entry, looked up): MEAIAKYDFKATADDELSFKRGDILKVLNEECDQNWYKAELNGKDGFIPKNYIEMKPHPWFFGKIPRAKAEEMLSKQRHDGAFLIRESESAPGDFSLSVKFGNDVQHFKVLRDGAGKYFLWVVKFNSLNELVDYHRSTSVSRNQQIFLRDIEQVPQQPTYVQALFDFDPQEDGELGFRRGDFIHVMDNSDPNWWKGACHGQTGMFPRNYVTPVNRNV

Sequence	phosphorylation enrichment (FGFR1)	phosphorylation enrichment (c-Abl (mouse))	phosphorylation enrichment (FGFR3)	phosphorylation enrichment (EPHB2)	phosphorylation enrichment (Fer (mouse))	phosphorylation enrichment (c-Src)	phosphorylation enrichment (AncSZ)	phosphorylation enrichment (EPHB1)	phosphorylation enrichment (Hck)	phosphorylation enrichment (MERTK)	phosphorylation enrichment (Fyn)	phosphorylation enrichment (Fes)	phosphorylation enrichment (Jak2)	SH2 binding enrichment (SHP2-C SH2)	SH2 binding enrichment (Grb2 SH2)	SH2 binding enrichment (c-Src SH2)
NKEAIYSGYIR [SMCHD1_Y283]	0.565	24.3	0.526	11.2	3.43	7.96	0.724	5.4	10.4	9.45	11.3	0.687	0.571	0.845	0.871	0.567
QHNPEYVQQAT [LRRC7_Y1058_S1063T]	0.505	0.517	0.553	0.455	0.461	0.284	0.612	0.425	0.491	0.238	0.422	0.799	0.985	0.617	0.838	0.429
ALLVFYAATIA [SLC20A2_Y187_P184L]	0.445	0.871	0.672	0.565	0.501	0.455	0.934	0.648	0.513	0.429	0.44	1.13	1.04	0.969	0.803	0.633
RETLTYAQAQR [BRD1_Y33]	0.541	0.963	0.525	0.478	0.42	0.623	0.702	0.383	0.746	0.529	0.584	0.737	0.694	0.819	0.904	0.753
SSMIDYNTLEK [MYOC_Y479_P481T]	0.401	0.486	0.568	0.506	0.453	0.401	0.792	0.428	0.482	0.408	0.452	0.748	0.904	0.433	0.643	0.607
LLREWYLPDPY [SIX3_Y225_Q227P]	0.636	0.969	0.816	0.473	0.409	0.49	0.888	0.541	0.484	0.351	0.477	1.14	1.04	1.09	1.58	1.1
AAVLNYKAWRD [GRIN2A_Y737_G740W]	0.534	0.808	0.462	0.276	0.338	0.396	0.839	0.408	0.436	0.386	0.35	0.656	0.646	0.915	1.35	0.481
PTDGVYVMPTV [MYO7A_Y1668_S1666G]	2.95	4.76	2.52	1.48	0.789	7.86	6.14	2.01	6.35	11.7	14	1.21	1.3	0.943	0.885	0.848
